Data taken from patent US10487307B2, “Culture method for pluripotent stem cells” (FUJIFILM CORPORATION, priority 2013, dated 2019).

Assays:
[1] = test system: iPS cells; test: Growth evaluation, number of cells after 3 days; format: cell-based, human; settings: 5,000 cells/well, sample 1 (RCP-1) = 100%
Protocol: By adding RCP-1 to RCP-11 and Human Recombinant Laminin-511 as control at the concentration shown in Table 9, samples 1 to 12 were prepared. The samples were seeded into a 96-well plate, onto which each of the polypeptides was adsorbed in the same manner as in <Cell adhesiveness evaluation 1>, at a ratio of 5,000 cells/well and cultured for 3 days in a CO2 incubator at 37° C. The number of cells after 3 days was calculated in the same manner as in <Cell adhesiveness evaluation 1>. In Table 9, the number of cells after 3 days is expressed as a ratio calculated by regarding the number of cells obtained by using the sample 1 as being 100%.

[2] = test system: human iPS cells ("Tic"); test: Cell adhesiveness evaluation 1 (ALP activity of adhesive iPS cells); format: cell-based; settings: 30,000 cells/well, 24 hours, natural vitronectin (sample 15) = 100%, n=3
Protocol: The cell adhesiveness of human iPS cells (“Tic”: Cell No. JCRB 1331: from National Institute of Biomedical Innovation. [567-0085, 7-6-8 Asagi Saito Ibaraki-City Osaka]) with respect to the aforementioned polypeptides was evaluated in the following manner.
As feeder cells for retaining the human iPS cells, EmbryoMax (registered trademark) (early mouse embryonic fibroblasts: resistant to hygromycin, treated with mitomycin C, derived from C57/BL6, third passage) (Millipore Corporation) was used. By using DMEM (Invitrogen) and a 10% (v/v) fetal bovine serum medium, the feeder cells were cultured for 24 hours and attached to a T25 flask (Corning Incorporated). As a medium for the human iPS cells, the one obtained by adding FGF-2 (Sigma-Aldrich Co, LLC.) to a medium composed as shown in Table 6 at a final concentration of 10 ng/ml was used.
By using the aforementioned medium, the human iPS cells were retained and cultured in a 5% (v/v, the same unit will be used hereinafter) CO2 incubator at 37° C. Except for the day after the seeding of the iPS cells, the medium was replaced every day. The subculture operation was performed by exfoliating the cells by using Dispase II (neutral protease Grade II, Roche) and separating the cells in an appropriate size by a pipetting operation.
The iPS cells cultured as described above were treated with TrypLE Select (Invitrogen) for 5 minutes at 37° C. and separated into a single cell. After being subjected to centrifugation for 2 minutes at 300 rpm, the cells were collected and suspended in TeSR2 (a medium not containing a heterogeneous animal-derived component and a serum component, STEMCELL Technologies.) containing Y-27362 ((R)-(+)-trans-N-(4-pyridyl)-4-(1-aminoethyl)-cyclohexane carboxamide.2HCl.H2O, an Rho binding kinase inhibitor, Wako Pure Chemical Industries, Ltd.) at a final concentration of 10 μM.
Each of RCP-1 to RCP-11, RCP-21, RCP-25, and RCP-26 as control, human vitronectin (extracted from human serum, BD Biosciences), and recombinant laminin (rLaminin-5: Oriental Yeast Co., ltd. and Human Recombinant Laminin-511: BIOLAMINA AB) was added to and suspended in a predetermined buffer (a dialysis buffer used in <GRAVY value and aggregation characteristics> described above for RCP-1 to RCP-11, and PBS for RCP-21, RCP-25, human vitronectin, and recombinant laminin) at the concentration shown in Table 7, thereby preparing samples 1 to 17. The samples were added to the respective wells of a 96-well plate and adsorbed onto the plate by being held for 2 hours at 37° C.
Into the respective wells of the 96-well plate treated with the peptides, iPS cells were seeded at a cell density of 30,000 cells/well. After the cells were cultured for 24 hours, the nonadhesive cells were washed off with PBS, and only the adhesive cells were immobilized by using 4% (v/v) paraformaldehyde (Wako Pure Chemical Industries, Ltd.). By using an Attophos (registered trademark) AP Fluorescent Substrate System (Promega Corporation), the ALP activity was calculated, and from the calibration curve, the number of undifferentiated iPS cells having the ALP activity was calculated. In Table 7, the cell adhesion rate is expressed as a ratio calculated by regarding the cell adhesion rate obtained from the sample 15 using natural vitronectin as being 100%. n=3.

[3] = Aggregation after dialysis of purified polypeptide solution; format: physicochemical; set-up: key: G: The formation of an aggregate was not observed.; A: The formation of particles having a particle size of about 100 nm was observed.; B: The formation of an aggregation of particles having a particle size of equal to or greater than 1 mm was visually observed
Protocol: For RCP-1 to RCP-11, each of the purified polypeptide solutions was dialyzed using Slide-A-Lizer (3.5 K MWCO.). Basically, by using a dialysis buffer (PBS, 1.5 M NaCl, 0.5 M L-arginine, 1 mM EDTA, pH 7.4) as an outer dialysate, urea was removed by stepwise dialysis. The concentration of the end-product of dialysis was calculated from the absorbence at 280 nm by using NanoDrop (Thermo Fisher Scientific Inc.).
Whether or not aggregation was occurred was evaluated based on the scale of A, and B as shown below.
G: The formation of an aggregate was not observed.
A: The formation of particles having a particle size of about 100 nm was observed.
B: The formation of an aggregation of particles having a particle size of equal to or greater than 1 mm was visually observed.

B1: RCP-3: recombinant polypeptide for culture, SEQ ID NO: 17; vitronectin positions 1-55, 322-341, 342-373 (protein)
chain: MDQESCKGRCTEGFNVDKKCQCDELCSYYQSCCTDYTAECKPQVTRGDVFTMPEDEGVPGQVDAAMAGRIYISGMAPRPSLAKKQRFRHRNRKGYRSQRGHSRGRNQN
modifications: Vitronectin-derived Recombinant Protein (RCP-3)
[1]; added amount 20 μg/cm^2
  Number of cells after 3 days (%): 109.7%
[2]; added amount 20 μg/cm^2
  Cell adhesion rate (%): 106.1 ± 4.5%
[3]
  Aggregation: G

B2: RCP-10: recombinant polypeptide for culture, SEQ ID NO: 24; vitronectin positions 1-55, 269-373, 374-399, C274S (protein)
chain: MDQESCKGRCTEGFNVDKKCQCDELCSYYQSCCTDYTAECKPQVTRGDVFTMPEDESQEESEGSSLSAVFEHFAMMQRDSWEDIFELLFWGRTSAGTRQPQFISRDWHGVPGQVDAAMAGRIYISGMAPRPSLAKKQRFRHRNRKGYRSQRGHSRGRNQNSRRPSRATWLSLFSSEESNLGANNYD
modifications: Vitronectin-derived Recombinant Protein (RCP-10)
notes: vitronectin positions 1-55, 269-373, 374-399, C274S
[1]; added amount 20 μg/cm^2
  Number of cells after 3 days (%): 101.9%
[2]; added amount 20 μg/cm^2
  Cell adhesion rate (%): 93.0 ± 7.8%
[3]
  Aggregation: B (The formation of an aggregation of particles having a particle size of equal to or greater than 1 mm was visually observed.)

B3: RCP-4: recombinant polypeptide for culture, SEQ ID NO: 18; vitronectin positions 1-55, 312-341, 342-373 (protein)
chain: MDQESCKGRCTEGFNVDKKCQCDELCSYYQSCCTDYTAECKPQVTRGDVFTMPEDEQPQFISRDWHGVPGQVDAAMAGRIYISGMAPRPSLAKKQRFRHRNRKGYRSQRGHSRGRNQN
modifications: Vitronectin-derived Recombinant Protein (RCP-4)
[1]; added amount 20 μg/cm^2
  Number of cells after 3 days (%): 120.7%
[2]; added amount 20 μg/cm^2
  Cell adhesion rate (%): 100.1 ± 4.5%
[3]
  Aggregation: G

B4: RCP-8: recombinant polypeptide for culture, SEQ ID NO: 22; vitronectin positions 1-55, 269-373, 374-379, C274S (protein)
chain: MDQESCKGRCTEGFNVDKKCQCDELCSYYQSCCTDYTAECKPQVTRGDVFTMPEDESQEESEGSSLSAVFEHFAMMQRDSWEDIFELLFWGRTSAGTRQPQFISRDWHGVPGQVDAAMAGRIYISGMAPRPSLAKKQRFRHRNRKGYRSQRGHSRGRNQNSRRPSR
modifications: Vitronectin-derived Recombinant Protein (RCP-8)
notes: vitronectin positions 1-55, 269-373, 374-379, C274S
[1]; added amount 5 μg/cm^2
  Number of cells after 3 days (%): 171.0%
[2]; added amount 5 μg/cm^2
  Cell adhesion rate (%): 89.2 ± 1.4%
[3]
  Aggregation: A

B5: RCP-7: recombinant polypeptide for culture, SEQ ID NO: 21; vitronectin positions 1-55, 269-373, C274S (protein)
chain: MDQESCKGRCTEGFNVDKKCQCDELCSYYQSCCTDYTAECKPQVTRGDVFTMPEDESQEESEGSSLSAVFEHFAMMQRDSWEDIFELLFWGRTSAGTRQPQFISRDWHGVPGQVDAAMAGRIYISGMAPRPSLAKKQRFRHRNRKGYRSQRGHSRGRNQN
modifications: Vitronectin-derived Recombinant Protein (RCP-7)
notes: vitronectin positions 1-55, 269-373, C274S
[1]; added amount 5 μg/cm^2
  Number of cells after 3 days (%): 89.9%
[2]; added amount 5 μg/cm^2
  Cell adhesion rate (%): 88.6 ± 8.1%
[3]
  Aggregation: A

B6: RCP-6: recombinant polypeptide for culture, SEQ ID NO: 20; vitronectin positions 1-55, 269-459, C274S (protein)
chain: MDQESCKGRCTEGFNVDKKCQCDELCSYYQSCCTDYTAECKPQVTRGDVFTMPEDESQEESEGSSLSAVFEHFAMMQRDSWEDIFELLFWGRTSAGTRQPQFISRDWHGVPGQVDAAMAGRIYISGMAPRPSLAKKQRFRHRNRKGYRSQRGHSRGRNQNSRRPSRATWLSLFSSEESNLGANNYDDYRMDWLVPATSEPIQSVFFFSGDKYYRVNLRTRRVDTVDPPYPRSIAQYWLGSPAPGHL
modifications: Vitronectin-derived Recombinant Protein (RCP-6)
notes: vitronectin positions 1-55, 269-459, C274S
[1]; added amount 20 μg/cm^2
  Number of cells after 3 days (%): 70.5%
[2]; added amount 20 μg/cm^2
  Cell adhesion rate (%): 92.8 ± 4.4%
[3]
  Aggregation: A

B7: RCP-2: recombinant polypeptide for culture, SEQ ID NO: 16; vitronectin positions 1-55 and 342-373 (protein)
chain: MDQESCKGRCTEGFNVDKKCQCDELCSYYQSCCTDYTAECKPQVTRGDVFTMPEDEPRPSLAKKQRFRHRNRKGYRSQRGHSRGRNQN
modifications: Vitronectin-derived Recombinant Protein (RCP-2)
[1]; added amount 20 μg/cm^2
  Number of cells after 3 days (%): 81.7%
[2]; added amount 20 μg/cm^2
  Cell adhesion rate (%): 98.7 ± 6.2%
[3]
  Aggregation: G

B8: RCP-9: recombinant polypeptide for culture, SEQ ID NO: 23; vitronectin positions 1-55, 269-373, 374-389, C274S (protein)
chain: MDQESCKGRCTEGFNVDKKCQCDELCSYYQSCCTDYTAECKPQVTRGDVFTMPEDESQEESEGSSLSAVFEHFAMMQRDSWEDIFELLFWGRTSAGTRQPQFISRDWHGVPGQVDAAMAGRIYISGMAPRPSLAKKQRFRHRNRKGYRSQRGHSRGRNQNSRRPSRATWLSLFSSE
modifications: Vitronectin-derived Recombinant Protein (RCP-9)
notes: vitronectin positions 1-55, 269-373, 374-389, C274S
[1]; added amount 20 μg/cm^2
  Number of cells after 3 days (%): 105.8%
[2]; added amount 20 μg/cm^2
  Cell adhesion rate (%): 95.5 ± 10.2%
[3]
  Aggregation: B (The formation of an aggregation of particles having a particle size of equal to or greater than 1 mm was visually observed.)
